Assay results from article PMC9210283, “DNA cytosine methylation at the lexA promoter of Escherichia coli is stationary phase specific”.

B1: lexAop 5mC/5mC (mC16 F / mC3 R) (dsDNA)
DNA 1: AATGCCTGCGGAAACTGTATATACACCCAGGGTCAATTCTGGCT
DNA 2: AGCCAGAATTGACCCTGGGTGTATATACAGTTTCCGCAGGCATT
modifications: 5-methyl-dC at position 28 of strand 1 and position 15 of strand 2
B2: lexAop C/C (nonmethylated) (dsDNA)
DNA 1: B1 DNA 1
DNA 2: B1 DNA 2

Experiments:
LexA [1] = biological target: T1, LexA (Escherichia coli, UniProt P0A7C2 1-202); experiment: EMSA; concentration as LexA dimer; Hill slope 1.1; 10 mM MgCl2; EMSA: 70 mM Tris-HCl pH 7.5, 2 mM PIPES, 180 mM NaCl, 10 mM MgCl2, 1 ug/ml salmon sperm DNA, 100 ug/ml BSA, 5% glycerol, 0.006% bromophenol blue, 0.1 nM probe; settings: protein: recombinant; chain copies: 2; label: 32P (5' on strand 1); blunt
T1 sequence (P0A7C2 whole entry): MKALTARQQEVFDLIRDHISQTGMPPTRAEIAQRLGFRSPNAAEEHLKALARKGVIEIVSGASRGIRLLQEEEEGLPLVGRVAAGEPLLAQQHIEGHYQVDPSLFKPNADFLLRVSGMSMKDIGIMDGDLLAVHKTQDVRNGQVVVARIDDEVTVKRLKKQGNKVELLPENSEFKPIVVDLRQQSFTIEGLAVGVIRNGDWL

LexA [2] = biological target: T1, LexA; experiment: EMSA; concentration as LexA dimer; Hill slope 1.2; 10 mM MgCl2; EMSA: 70 mM Tris-HCl pH 7.5, 2 mM PIPES, 180 mM NaCl, 10 mM MgCl2, 1 ug/ml salmon sperm DNA, 100 ug/ml BSA, 5% glycerol, 0.006% bromophenol blue, 0.1 nM probe; settings: protein: recombinant; chain copies: 2; label: 32P (5' on strand 1); blunt

Binder	Kd (LexA [1])	Kd (LexA [2])
B1	14 nM	
B2		15 nM
